Biological target: FLAG (F)-tagged hsp90α (wild type), P07900

Row | Protein | in vitro acetylation of hsp90α, Western analysis with anti-AcK antibody
1 | p300 protein (upstate) (protein) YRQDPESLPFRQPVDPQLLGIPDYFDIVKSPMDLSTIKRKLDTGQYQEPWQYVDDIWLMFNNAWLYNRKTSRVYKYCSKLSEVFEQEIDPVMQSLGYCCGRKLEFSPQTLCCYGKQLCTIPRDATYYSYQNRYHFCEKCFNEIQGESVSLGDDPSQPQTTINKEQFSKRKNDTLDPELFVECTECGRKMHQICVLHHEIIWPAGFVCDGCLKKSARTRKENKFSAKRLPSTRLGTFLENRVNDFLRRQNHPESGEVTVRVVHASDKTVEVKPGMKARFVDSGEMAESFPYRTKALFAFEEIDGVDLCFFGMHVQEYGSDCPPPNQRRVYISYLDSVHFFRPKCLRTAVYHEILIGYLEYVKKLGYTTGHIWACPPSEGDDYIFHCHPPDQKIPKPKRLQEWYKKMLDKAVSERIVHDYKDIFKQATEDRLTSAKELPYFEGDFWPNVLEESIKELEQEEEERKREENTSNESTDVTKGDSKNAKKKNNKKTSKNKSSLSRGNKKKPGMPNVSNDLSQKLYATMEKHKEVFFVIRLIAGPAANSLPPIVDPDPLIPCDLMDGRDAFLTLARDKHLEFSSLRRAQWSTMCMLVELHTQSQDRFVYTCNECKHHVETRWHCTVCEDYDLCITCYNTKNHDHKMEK | Co-incubation with p300 was discovered to dose-dependently stimulate the acetylation of hsp90α
2 | PCAF (protein) MSEAGGAGPGGCGAGAGAGAGPGALPPQPAALPPAPPQGSPCAAAAGGSGACGPATAVAAAGTAEGPGGGGSARIAVKKAQLRSAPRAKKLEKLGVYSACKAEESCKCNGWKNPNPSPTPPRADLQQIIVSLTESCRSCSHALAAHVSHLENVSEEEMNRLLGIVLDVEYLFTCVHKEEDADTKQVYFYLFKLLRKSILQRGKPVVEGSLEKKPPFEKPSIEQGVNNFVQYKFSHLPAKERQTIVELAKMFLNRINYWHLEAPSQRRLRSPNDDISGYKENYTRWLCYCNVPQFCDSLPRYETTQVFGRTLLRSVFTVMRRQLLEQARQEKDKLPLEKRTLILTHFPKFLSMLEEEVYSQNSPIWDQDFLSASSRTSQLGIQTVINPPPVAGTISYNSTSSSLEQPNAGSSSPACKASSGLEANPGEKRKMTDSHVLEEAKKPRVMGDIPMELINEVMSTITDPAAMLGPETNFLSAHSARDEAARLEERRGVIEFHVVGNSLNQKPNKKILMWLVGLQNVFSHQLPRMPKEYITRLVFDPKHKTLALIKDGRVIGGICFRMFPSQGFTEIVFCAVTSNEQVKGYGTHLMNHLKEYHIKHDILNFLTYADEYAIGYFKKQGFSKEIKIPKTKYVGYIKDYEGATLMGCELNPRIPYTEFSVIIKKQKEIIKKLIERKQAQIRKVYPGLSCFKDGVRQIPIESIPGIRETGWKPSGKEKSKEPRDPDQLYSTLKSILQQVKSHQSAWPFMEPVKRTEAPGYYEVIRFPMDLKTMSERLKNRYYVSKKLFMADLQRVFTNCKEYNPPESEYYKCANILEKFFFSKIKEAGLIDK | This was not seen with PCAF

Reference: patent US20100111943
